The target in the assay is Streptococcus pyogenes Cas9 (SpyCas9) (UniProt Q99ZW2). The experiment in a line: SEC co-migration followed by SDS-PAGE, band intensity quantified. To be noted: parent: est. 99; read off a plot.

With “AcrIIA28 from Streptococcus phage Javan 128 H30W”, the response was 81%. “AcrIIA28 from Streptococcus phage Javan 128 R41W”: the response was 96%.

As for “AcrIIA28 from Streptococcus phage Javan 128 W45I”, the response was 3%. Then “AcrIIA28 from Streptococcus phage Javan 128 K7D”, with 41%. Under “AcrIIA28 from Streptococcus phage Javan 128 S34W” stands 97%.

“AcrIIA28 from Streptococcus phage Javan 128 S81W”: the response was determined as 21%. Under “AcrIIA28 from Streptococcus phage Javan 128 K48D” stands 93%; under “AcrIIA28 from Streptococcus phage Javan 128 K38W”, 83%.

The values are drawn from article PMC11194106.
